# From paper PMC10980356 (The Plant Cell, 2023)
# T1: MLO2-NLuc (A. thaliana, UniProt Q9SXB6 1-573)
# T1 sequence: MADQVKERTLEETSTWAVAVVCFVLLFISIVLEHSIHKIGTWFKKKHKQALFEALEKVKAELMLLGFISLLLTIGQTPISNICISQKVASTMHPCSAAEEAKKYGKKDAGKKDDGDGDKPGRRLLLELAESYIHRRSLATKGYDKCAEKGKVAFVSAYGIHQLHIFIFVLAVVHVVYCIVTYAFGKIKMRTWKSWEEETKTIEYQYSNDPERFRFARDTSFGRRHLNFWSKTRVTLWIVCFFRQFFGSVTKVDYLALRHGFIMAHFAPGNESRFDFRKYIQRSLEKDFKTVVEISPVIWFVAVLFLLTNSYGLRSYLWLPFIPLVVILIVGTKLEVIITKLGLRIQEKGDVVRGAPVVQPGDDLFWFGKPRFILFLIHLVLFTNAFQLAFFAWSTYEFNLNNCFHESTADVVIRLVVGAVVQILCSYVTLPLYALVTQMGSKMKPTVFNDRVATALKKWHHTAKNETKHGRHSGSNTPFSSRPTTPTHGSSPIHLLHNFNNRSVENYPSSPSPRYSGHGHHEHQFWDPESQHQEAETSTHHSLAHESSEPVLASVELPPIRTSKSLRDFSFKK
# T2: MLO12-NLuc (A. thaliana, UniProt O80961 1-576)
# T2 sequence: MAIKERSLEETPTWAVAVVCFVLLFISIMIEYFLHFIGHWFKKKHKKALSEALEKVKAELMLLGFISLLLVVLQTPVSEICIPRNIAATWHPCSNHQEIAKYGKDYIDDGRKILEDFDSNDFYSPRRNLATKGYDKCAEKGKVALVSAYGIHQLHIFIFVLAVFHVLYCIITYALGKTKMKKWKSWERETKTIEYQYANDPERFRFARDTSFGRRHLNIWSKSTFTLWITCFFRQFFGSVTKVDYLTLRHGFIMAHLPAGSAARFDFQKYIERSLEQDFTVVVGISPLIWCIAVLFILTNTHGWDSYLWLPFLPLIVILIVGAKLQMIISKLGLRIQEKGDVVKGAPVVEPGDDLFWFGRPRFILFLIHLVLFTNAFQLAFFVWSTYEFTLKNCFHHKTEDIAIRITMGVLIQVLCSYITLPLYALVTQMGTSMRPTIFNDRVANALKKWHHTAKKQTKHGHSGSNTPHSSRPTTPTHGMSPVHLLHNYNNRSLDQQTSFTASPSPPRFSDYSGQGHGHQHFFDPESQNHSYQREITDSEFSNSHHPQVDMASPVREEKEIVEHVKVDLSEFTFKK
# T3: MLO6-NLuc (A. thaliana, UniProt Q94KB7 1-583)
# T3 sequence: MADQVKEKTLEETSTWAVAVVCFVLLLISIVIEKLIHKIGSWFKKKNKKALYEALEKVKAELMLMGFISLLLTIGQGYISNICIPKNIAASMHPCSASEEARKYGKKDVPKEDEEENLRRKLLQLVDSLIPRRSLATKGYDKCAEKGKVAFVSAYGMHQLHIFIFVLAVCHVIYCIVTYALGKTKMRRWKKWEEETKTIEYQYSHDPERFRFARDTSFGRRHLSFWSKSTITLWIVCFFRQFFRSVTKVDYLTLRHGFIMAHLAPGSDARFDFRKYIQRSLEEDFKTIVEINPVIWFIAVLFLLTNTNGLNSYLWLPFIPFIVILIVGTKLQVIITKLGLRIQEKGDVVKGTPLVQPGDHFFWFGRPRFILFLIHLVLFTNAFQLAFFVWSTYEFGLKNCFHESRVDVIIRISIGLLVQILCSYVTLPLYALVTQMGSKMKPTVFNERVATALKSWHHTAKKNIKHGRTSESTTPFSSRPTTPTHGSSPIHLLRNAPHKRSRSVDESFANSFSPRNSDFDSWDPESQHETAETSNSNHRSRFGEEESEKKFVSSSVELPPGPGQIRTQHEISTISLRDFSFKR
# B1: CLuc-EXO70H1 (natural protein)
# chain: MAKMAKFSFFSSSSPKYHPSSPSSFTSFPASPLNQNFTQAMMEETVETADSVIRKWDPNTPSFTKIVSLFNHSRKEAKEFIRCVRDLRRAMHFLVSQDSQSPKLALAQTLMQIAMARLEKEFFQILSSNRDKLDPESVSGQSSISSNSEFEDVMGSDDDDESDNEMRKAGESITQVEKASAMVMSDLKAIAESMISCGYGKECVKIYKRVRKSIVDEGLSLLGIEIYKGSRFHRTDWVTLEHMIKNWIKAAKIGIATLFRGEKLLCDHVFSASNSTRESCFYEIANEAATNLFKFPEFVAKEKKSHERIFPLMDLQAAISDLWQDIEMIFHFDAVAGVKSQALTSLQKLKVSIHSALTDFESIIQKDTTKALTPGGGIHKLTRSTMNFISSLSKYSGVLSEILADHPLPRNTRLLESYVRAPISEDEQHNHALSVHFAWLILVLLCKLDTKAEHYKDVSLSYLFLANNLQIIIETVGSTPLRNLLGDDWLNKHEDKLCAYAGNYEIAAWSNVFMSLPEEPTDLSPEEAKIYFRRFHTAFEEAYMKQSSRVVPNAKLRDELKVSIAKKLVPEYREFYRKYLPMLGQERNIEILVRFKPDNLENYISDLFHGTPIHASSSFSSSSSSSSWKSLGCVSG
# B2: CLuc-EXO70B2 (natural protein)
# chain: MAEAGDENLYAAARDIARALGKDPSAAGDILQILSGYGASGNRGGDPRPTPSRGGSNVNFDRALTSLERQISSYIVEDRPIWSDPVDSRTFLDSVDELLAIAGDLRSMAGDKSVAVCQSRADELIQQVMFRLQEEFGFVMDRAPDSFDSDDEFPGEEDNDTSDGVIVARPITDYKIVIEALQSSVIGDLNAIAVRMVAGGFAKECSRVYSSRRREFLEESLSRLHLRGLSMEEVQESPWQDLEDEIDRWIKAVTLIFHVFFPSERLLCDRVFSDLPVSSVTDLSFMEVCRGTTTQLLNFADAIALGSRLPERLFKVVDLYEAMQDLIPKMETLFSDRYCSPLRHEALAIHKRLGEAIRGIFMELENLIRRDPPKTAFPGGGIHPITRYVMNYLRAACKSRQSLEQILDQTGNETGSDTRPLSVQIIWVLELLESNLEGKKRTYRDPSLCFLFMMNNDKYILDKAKDNELGLVLGEDWIVKHAAKLRQYHSNYRRSSWNQVVGLLRTDGPYPKLVENLRLFKSQFDEVCKVQSQWVVSDGQLREELRSSVAGIVSPAYSNFIRRLKESPEINGRRGEPFIPYTVEDVEFIIKRLFKESSS
# B3: CLuc-EXO70H4 (natural protein)
# chain: MMTRKAMINICCVATTPSKYPPPPPLTLTPRQSLESAAIYGVIESAADIIERWNTETNTFAKVTCMFYENKPEAMMFIERVKDLQKTMDVLVSEDPNSERLLRSHKLMQIAMKRLQKEFYQILSMNRAYLDPESVSTRSSLTSARSSYSDFPDYVEDLDTIIELEEVSTNVMTDLKSIAECMIGSGYAKECLSIYKSIRKSIIDEGIYRLEVEKTSTGKVKKMSWEVMELKIRSWLKAVKVSMETLFKGEKILCDHVFESSDAIRESCFSDISRDGALLLFGFPEIINTKTSKKHSPPEKVFRLLDMYTAIAGNWQAIESIFSFDSISVVRSLALKSLISLSESIRSLLVEFESGIQKDSSKVVVPGGGVHPLTISVMDHLSLLADYSNVLVDILAGSPPPDRSLLPESYFNVSESDDSPSSELTIRFAWIILVLLCKIDRKSIHYKDFSIQYLFLTNNLQHVVSRARSSNLKNLLGEDWITRHFAKMRQFAGSYKRLAWGPVVATLPENRTVEMTPEEVKERFEKFSESFENAYSKHSVCVVADPNIRDEIKVSISRKLVPIYREFYNTRGSVILGEGDGARNLNSVVRFTPEDIENYLSDLFREKGSSGNSSASSPSSCRSRQSMS
# Legend:
# Experiment in all cases: split reporter
# MLO2-NLuc = molecular target: T1, MLO2-NLuc
# MLO12-NLuc = molecular target: T2, MLO12-NLuc
# MLO6-NLuc = molecular target: T3, MLO6-NLuc
Binder,relative luminescence (in relation to the calmodulin positive control) (MLO2-NLuc),relative luminescence (in relation to the calmodulin positive control) (MLO12-NLuc),relative luminescence (in relation to the calmodulin positive control) (MLO6-NLuc)
B1,~0.39,~0.37,
B2,~0.56,,
B3,~0.4,,~0.67
